# Assay results published in US20250186597A1, “TARGETED IMMUNE ACTIVATION WITH IL-18 IMMUNOCYTOKINES” (BRIGHT PEAK THERAPEUTICS AG, priority 2023, published 2025).
# Legend:
# [1] = target: T1, human Fc gamma receptors I (FcγRI/CD64) (Homo sapiens, UniProt P12314); assay: Human FcγR binding ELISA, FcγRI/CD64 (Example 8); conditions: ELISA binding affinity
# T1 construct: purchased R&D systems 1257-FC-050
# Description: (§1) The interaction of the unmodified and of conjugated antibodies with human Fc gamma receptors I (FcγRI/CD64), with human Fc gamma receptors IIa (FcγRIIa/CD32a), with inhibitory human Fc gamma receptors IIb (FcγRIIb/CD32b), and with human Fc gamma receptors III FcγRIIIa/CD16 were measured by ELISA.
# (§2) Briefly, Corning high-binding half-area plates (Fisher Scientific, Reinach, Switzerland) were coated overnight at 4° C. with 25 μl of unmodified and of conjugated anti-PD1 antibodies at 2.5 μg/ml in PBS. […] Plates surfaces were blocked with 25 μl of PBS-0.02% Tween20-1% BSA at 37° C. during 1 h. […] Twenty-five microliters of a 1/500 HRP-anti-His antibody in PBS—0.02% Tween20—0.1% BSA (R&D systems, anti-HIS—HRP Ab, #MAB050H) were added to each well and plates were incubated at Room Temperature during 1 h. […] ELISA signal was then measured at 450 nm on an EnSpire plate reader from Perkin Elmer (Schwerzenbach, Switzerland).
# [2] = target: T2, human Fc gamma receptors III FcγRIIIa/CD16 (Homo sapiens, UniProt P08637); assay: Human FcγR binding ELISA, FcγRIIIa/CD16 (Example 8); conditions: ELISA binding affinity
# T2 construct: purchased R&D systems 4325-FC-050
# Description: as §1, §2
# [3] = target: T3, human Fc gamma receptors IIb (FcγRIIb/CD32b) (Homo sapiens, UniProt P31994); assay: Human FcγR binding ELISA, FcγRIIb/CD32b (Example 8); conditions: ELISA binding affinity
# T3 construct: purchased R&D systems AVI1875-050
# T3 sequence (P31994 43-310): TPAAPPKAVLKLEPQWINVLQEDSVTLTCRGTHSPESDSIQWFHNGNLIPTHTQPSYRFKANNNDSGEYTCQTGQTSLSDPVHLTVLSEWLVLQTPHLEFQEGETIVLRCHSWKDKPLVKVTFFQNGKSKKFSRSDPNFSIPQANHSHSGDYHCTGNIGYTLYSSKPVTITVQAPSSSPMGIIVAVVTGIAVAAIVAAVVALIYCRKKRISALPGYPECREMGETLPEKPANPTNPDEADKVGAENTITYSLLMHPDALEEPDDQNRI
# Description: as §1, §2
# human PD-L1/B7-H1 = target: T4, human PD-L1/B7-H1 (Homo sapiens, UniProt Q9NZQ7); assay: PD-L1 binding ELISA assay (Example 5); conditions: biotinylated human PD-L1
# T4 construct: purchased ACROBiosystems PD1-H82E5-25UG
# Description: The interaction of the unmodified antibodies and corresponding IL-18 immunocytokines with relevant immune cell associated antigen are measured by ELISA assay. For these studies, Corning high-binding half-area plates (Fisher Scientific, Reinach, Switzerland) are coated overnight at 4° C. with 25 μl of unmodified antibodies corresponding IL-18 immunocytokines at […] in PBS. […] Plate surfaces are blocked with 25 μl of PBS-0.02% Tween20-1% BSA at 37° C. during 1 h. […] ELISA signal is then measured at 450 nm on an ENSPIRE® plate reader from Perkin Elmer (Schwerzenbach, Switzerland).
# [4] = target: T5, human Fc gamma receptors IIa (FcγRIIa/CD32a) (Homo sapiens, UniProt P12318); assay: Human FcγR binding ELISA, FcγRIIa/CD32a (Example 8); conditions: ELISA binding affinity
# T5 construct: purchased R&D systems 9595-CD-050
# T5 sequence (P12318 34-317): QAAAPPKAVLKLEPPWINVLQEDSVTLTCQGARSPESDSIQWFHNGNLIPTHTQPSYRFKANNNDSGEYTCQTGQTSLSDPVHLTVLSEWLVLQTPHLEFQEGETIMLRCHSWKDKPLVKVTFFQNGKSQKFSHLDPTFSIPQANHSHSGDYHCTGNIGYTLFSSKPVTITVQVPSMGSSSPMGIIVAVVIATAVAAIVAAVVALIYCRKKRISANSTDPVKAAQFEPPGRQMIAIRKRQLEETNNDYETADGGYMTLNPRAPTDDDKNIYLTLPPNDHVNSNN
# Description: as §1, §2
# human PD1 = target: T6, human PD1 (Homo sapiens, UniProt Q15116); assay: Binding kinetics to PD-1 by Bio-Layer Interferometry (Example 6); conditions: BLI, His-tagged human PD1
# T6 construct: purchased R&D #8986-PD
# Text: Based on Bio-Layer Interferometry (BLI), Octet® BLI systems enable real-time, label-free analysis for the determination of kinetics and affinity of a ligands to its receptor. Here anti-human IgG FC Capture (AHC) sensors are loaded with the test items (ICs). Sensors are first dipped into a kinetic buffer for baseline measurement, then into an analyte solution, here human PD1, to allow association and again into a buffer solution where the analyte is allowed to come off the ligand (dissociation). Several concentrations of analyte are run in parallel and enable the calculation of affinity parameters: Ka, Kd, KD.
# Typically, first, the sensors are regenerated by 3 cycles of dipping into 10 mM glycine solution at pH=2 for 20 seconds, followed by 20 second kinetics buffer and a final 60 seconds in kinetics buffer to establish the initial signal (baseline). Second, the loading column will contain the ligand, here the unmodified PD-1 antibodies and of IL-18 polypeptide conjugated PD-1 antibody, at a fixed concentration determined in the loading scout experiment (20 ug/mL). Then another wash/baseline step allows non immobilized proteins to be washed away. […] After acquisition, the data is analyzed with Data Analysis Studio software (Sartorius). […] Group fitting is then applied to the data series and kinetics parameters are calculated.
# [5] = target: T7, human neonatal Fc receptor (FcRn) (Homo sapiens, UniProt P55899); assay: Human FcRn binding AlphaLISA at pH 6 (Example 9)
# T7 construct: purchased Perkin Elmer AL3095C
# Description: The interaction of the unmodified and of conjugated anti-PD1 antibodies with the human neonatal Fc receptor (FcRn) at pH 6 was measured using the AlphaLISA® Human FcRn Binding Kit (AL3095C) from Perkin Elmer (Schwerzenbach, Switzerland). […] When reference IgG binds to FcRn, donor and acceptor beads come into proximity enabling the transfer of singlet oxygen that trigger a cascade of energy transfer reactions in the acceptor beads, resulting in a sharp peak of light emission at 615 nm. Addition of a free IgG antibodies into the AlphaLISA® mixture creates a competition for the binding of FcRn to the reference antibody resulting in a loss of signal.
# After 90 min at 23° C. in the dark, AlphaLISA® signal was measured on an EnSpire plate reader (Excitation at 680 nm, Emission at 615 nm) from Perkin Elmer (Schwerzenbach, Switzerland).
# T6 sequence (Q15116 25-288): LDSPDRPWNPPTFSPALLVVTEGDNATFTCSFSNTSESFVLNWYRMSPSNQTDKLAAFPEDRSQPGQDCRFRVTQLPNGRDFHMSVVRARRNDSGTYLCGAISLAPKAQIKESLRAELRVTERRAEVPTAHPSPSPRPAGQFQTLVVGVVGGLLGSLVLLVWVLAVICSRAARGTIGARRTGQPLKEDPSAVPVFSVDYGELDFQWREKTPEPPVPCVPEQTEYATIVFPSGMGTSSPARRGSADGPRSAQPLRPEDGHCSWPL
# T2 sequence (P08637 17-254): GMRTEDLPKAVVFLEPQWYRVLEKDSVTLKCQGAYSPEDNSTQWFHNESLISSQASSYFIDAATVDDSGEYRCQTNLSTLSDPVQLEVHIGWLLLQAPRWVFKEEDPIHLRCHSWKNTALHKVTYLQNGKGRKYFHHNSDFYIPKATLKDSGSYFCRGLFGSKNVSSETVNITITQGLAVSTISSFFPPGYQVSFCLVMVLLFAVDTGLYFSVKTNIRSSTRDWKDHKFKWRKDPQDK
# T1 sequence (P12314 16-374): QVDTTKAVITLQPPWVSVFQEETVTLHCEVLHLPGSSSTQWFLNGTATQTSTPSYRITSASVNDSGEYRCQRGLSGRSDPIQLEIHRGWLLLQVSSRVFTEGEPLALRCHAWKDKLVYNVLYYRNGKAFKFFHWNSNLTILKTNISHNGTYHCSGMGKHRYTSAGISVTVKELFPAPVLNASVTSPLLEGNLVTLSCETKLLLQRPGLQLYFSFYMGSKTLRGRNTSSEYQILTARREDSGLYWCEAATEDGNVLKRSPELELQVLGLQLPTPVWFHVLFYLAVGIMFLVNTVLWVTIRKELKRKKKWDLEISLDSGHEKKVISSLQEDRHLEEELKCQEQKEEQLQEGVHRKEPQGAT
# T7 sequence (P55899 24-297 limits assumed): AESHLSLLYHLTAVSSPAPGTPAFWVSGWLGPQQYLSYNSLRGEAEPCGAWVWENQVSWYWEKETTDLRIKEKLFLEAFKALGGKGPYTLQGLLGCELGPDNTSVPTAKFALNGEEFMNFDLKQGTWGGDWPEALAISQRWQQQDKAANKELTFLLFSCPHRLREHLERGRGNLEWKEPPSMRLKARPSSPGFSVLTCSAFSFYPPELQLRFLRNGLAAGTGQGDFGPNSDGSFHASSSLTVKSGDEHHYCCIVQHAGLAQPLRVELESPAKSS
# T7 sequence (P61769 21-119 partner): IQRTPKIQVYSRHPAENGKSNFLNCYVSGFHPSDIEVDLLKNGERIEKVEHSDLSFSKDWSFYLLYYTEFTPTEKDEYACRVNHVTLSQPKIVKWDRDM
# T4 sequence (Q9NZQ7 19-290): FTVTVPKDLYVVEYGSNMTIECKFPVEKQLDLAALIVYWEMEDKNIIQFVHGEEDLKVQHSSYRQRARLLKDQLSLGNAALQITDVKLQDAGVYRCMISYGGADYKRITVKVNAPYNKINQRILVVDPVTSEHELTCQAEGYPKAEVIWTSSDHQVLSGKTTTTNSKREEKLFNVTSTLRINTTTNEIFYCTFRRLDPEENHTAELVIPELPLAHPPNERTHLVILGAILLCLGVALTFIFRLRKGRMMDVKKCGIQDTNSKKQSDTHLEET
substance,measurement,setting,value
"LZM-009: anti-PD-1 antibody, VH SEQ ID NO: 376, VL SEQ ID NO: 377 [reference compound]",Kd,[1],0.315 nM
same,Kd,[2],1710 nM
same,Kd,[3],2630 nM
same,Kd,human PD-L1/B7-H1,> 100 nM
same,Kd,[4],1350 nM
same,ka,human PD1,342000 M⁻¹ s⁻¹
same,kd,human PD1,0.0077 s⁻¹
same,Kd,[5],6 nM
